Our source for the stoichiometry N values is PMC10150220.

The test addresses GST-FKBP12. The test is described as follows: AUC; sedimentation equilibrium of GST-FKBP12, seven serial two-fold dilutions from 320 µM, 3000-12 000 r.p.m., about 14 h, absorbance at 230 and 280 nm, Sedphat.

GST-FKBP12 registered a stoichiometry N of 2.
